Results taken from patent US20110065632A1, “PHARMACEUTICAL COMPOSITIONS OF SOMATOSTATIN-DOPAMINE CONJUGATES” (priority 2008, published 2011).
Values after ≈ are worked out from the molar mass of the structure shown.

Assays:
hsst1 = target: T1, hsst1 (Homo sapiens, UniProt P30872); assay: Somatostatin receptor radioligand binding assay, hsst1
T1 construct: expressed in transfected cells
In short: (§1)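 Membranes from CHO-K1 cells stably transfected with each human SSTR subtype, incubated 90 min at 25 °C with 0.05 nM [125I-Tyr11]SS-14 in 50 mM HEPES pH 7.4 with BSA, MgCl2 and protease inhibitors; filtration read-out. Nonspecific binding with 1000 nM SS-14; Ki values reported.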

hsst2 = target: T2, hsst2 (Homo sapiens, UniProt P30874); assay: Somatostatin receptor radioligand binding assay, hsst2; details: CHO-K1 membranes, [125I]MK-678; read-out: hsst2 Ki
T2 construct: expressed in transfected cells
T2 sequence (P30874 whole entry): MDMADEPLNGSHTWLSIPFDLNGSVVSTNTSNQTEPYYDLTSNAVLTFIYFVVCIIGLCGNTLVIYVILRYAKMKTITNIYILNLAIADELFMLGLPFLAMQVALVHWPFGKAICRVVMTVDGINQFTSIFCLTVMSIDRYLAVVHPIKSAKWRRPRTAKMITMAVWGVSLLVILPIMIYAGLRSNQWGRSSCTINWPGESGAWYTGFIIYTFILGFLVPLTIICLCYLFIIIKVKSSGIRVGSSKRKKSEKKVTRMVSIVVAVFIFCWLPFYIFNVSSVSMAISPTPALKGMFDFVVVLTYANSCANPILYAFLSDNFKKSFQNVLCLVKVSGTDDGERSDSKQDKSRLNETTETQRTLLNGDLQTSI
In short: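 Membranes from CHO-K1 cells stably expressing human SSTR2, in 10 mM Tris-HCl, incubated 90 min at 25 °C with 0.05 nM [125I]MK-678. Bound ligand collected by filtration on PEI-soaked GF/C filters; nonspecific binding defined with 1000 nM MK-678.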

hsst3 = target: T3, hsst3 (Homo sapiens, UniProt P32745); assay: Somatostatin receptor radioligand binding assay, hsst3
T3 construct: expressed in transfected cells
T3 sequence (P32745 whole entry): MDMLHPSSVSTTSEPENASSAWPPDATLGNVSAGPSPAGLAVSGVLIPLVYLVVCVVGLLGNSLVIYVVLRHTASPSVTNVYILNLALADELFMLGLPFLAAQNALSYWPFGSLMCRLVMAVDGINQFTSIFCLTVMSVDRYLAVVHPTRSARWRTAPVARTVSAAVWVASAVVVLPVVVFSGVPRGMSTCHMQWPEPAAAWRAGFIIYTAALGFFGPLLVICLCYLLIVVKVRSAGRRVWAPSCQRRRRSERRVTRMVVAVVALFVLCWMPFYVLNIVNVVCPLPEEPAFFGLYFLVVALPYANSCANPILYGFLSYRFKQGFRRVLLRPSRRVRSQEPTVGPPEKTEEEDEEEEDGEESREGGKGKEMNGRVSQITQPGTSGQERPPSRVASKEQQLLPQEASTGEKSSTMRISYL
In short: as §1

[1] = Solubility of Example 1 at various concentrations of DMA and PEG400; format: physicochemical
Description: A compound that may advantageously be used to practice the invention can be tested to determine its solubility at different DMA and PEG400 concentrations using the following procedure.
To about 1 mg of Example 1 were added increasing volumes of the above solvents or buffers. When a soluble volume was reached, the concentration was calculated by weight/volume. When Example 1 was not soluble, the solution was centrifuged and the supernatant was analyzed by HPLC to determine the concentrations. The determined concentration is treated as the solubility of Example 1 in that solvent or buffer.
The solution pHs were checked. They were about pH 7. No further adjustment was done.

T1 sequence (P30872 whole entry): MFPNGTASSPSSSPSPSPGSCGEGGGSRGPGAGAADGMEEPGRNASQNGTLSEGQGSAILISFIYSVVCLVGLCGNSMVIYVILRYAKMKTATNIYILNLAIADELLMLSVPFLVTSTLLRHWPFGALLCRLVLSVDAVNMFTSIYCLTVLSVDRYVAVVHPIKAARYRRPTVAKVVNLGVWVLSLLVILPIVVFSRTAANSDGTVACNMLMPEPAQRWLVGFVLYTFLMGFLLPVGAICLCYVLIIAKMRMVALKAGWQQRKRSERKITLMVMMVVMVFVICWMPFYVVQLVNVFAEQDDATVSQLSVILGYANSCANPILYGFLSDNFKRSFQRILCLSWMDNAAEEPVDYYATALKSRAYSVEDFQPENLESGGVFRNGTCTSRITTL

For CCCN1C[C@H](CSCC(=O)NCCCC[C@@H](NC(=O)CSC[C@@H]2C[C@@H]3c4cccc5[nH]cc(c45)C[C@H]3N(CCC)C2)C(=O)N[C@H]2CSSC[C@@H](C(=O)N[C@H](C(N)=O)[C@@H](C)O)NC(=O)[C@H](CC)NC(=O)[C@H](CCCCN)NC(=O)[C@@H](Cc3c[nH]c4ccccc34)NC(=O)[C@H](Cc3ccc(O)cc3)NC2=O)C[C@@H]2c3cccc4[nH]cc(c34)C[C@H]21 [Example 1, Dop2-DLys(Dop2)-cyclo[Cys-Tyr-DTrp-Lys-Abu-Cys]-Thr-NH2], the Ki (hsst1) was 843 nM, the Ki (hsst2) was 0.03 nM and the Ki (hsst3) was 160 nM. It also gave a solubility ([1]; 5% DMA in PBS, PBS pH 7, 5% DMA, by HPLC) of 130 µg/mL (≈ 76.7 µM), a solubility ([1]; 5% DMA in water, Water pH 7, 5% DMA) of over 100000 µg/mL and a solubility ([1]; 5% PEG400 in PBS, PBS pH 7, 5% PEG400, by HPLC) of 50 µg/mL (≈ 29.5 µM). For the same compound, the solubility ([1]; 5% PEG400 in water, Water pH 7, 5% PEG400) was over 50000 µg/mL, the solubility ([1]; 10% DMA in PBS, PBS pH 7, 10% DMA, by HPLC) was 480 µg/mL (≈ 283 µM) and the solubility ([1]; 10% DMA in water, Water pH 7, 10% DMA) was over 100000 µg/mL. The solubility ([1]; 10% PEG400 in PBS, PBS pH 7, 10% PEG400, by HPLC) was 330 µg/mL (≈ 195 µM), the solubility ([1]; 10% PEG400 in water, Water pH 7, 10% PEG400) was over 50000 µg/mL and the solubility ([1]; 20% DMA in PBS, PBS pH 7, 20% DMA, by HPLC) was 780 µg/mL (≈ 460 µM). For the same compound, the solubility ([1]; 20% DMA in water, Water pH 7, 20% DMA) was over 100000 µg/mL, the solubility ([1]; 20% PEG400 in PBS, PBS pH 7, 20% PEG400, by HPLC) was 750 µg/mL (≈ 443 µM) and the solubility ([1]; 20% PEG400 in water, Water pH 7, 20% PEG400) was over 50000 µg/mL. It also gave a solubility ([1]; 30% DMA in PBS, PBS pH 7, 30% DMA, by HPLC) of 4200 µg/mL (≈ 2480 µM), a solubility ([1]; 30% DMA in water, Water pH 7, 30% DMA) of over 100000 µg/mL and a solubility ([1]; 30% PEG400 in PBS, PBS pH 7, 30% PEG400, by HPLC) of 2980 µg/mL (≈ 1760 µM). The solubility ([1]; 30% PEG400 in water, Water pH 7, 30% PEG400) was over 50000 µg/mL, the solubility ([1]; 40% DMA in PBS, PBS pH 7, 40% DMA) was over 50000 µg/mL and the solubility ([1]; 40% DMA in water, Water pH 7, 40% DMA) was over 100000 µg/mL. It also gave a solubility ([1]; 40% PEG400 in PBS, PBS pH 7, 40% PEG400, by HPLC) of 3500 µg/mL (≈ 2070 µM), a solubility ([1]; 40% PEG400 in water, Water pH 7, 40% PEG400) of over 50000 µg/mL and a solubility ([1]; PBS (0% DMA), PBS pH 7, 0% DMA, by HPLC) of 40 µg/mL (≈ 23.6 µM). For the same compound, the solubility ([1]; water (0% DMA), Water pH 7, 0% DMA, by HPLC) was 860 µg/mL (≈ 508 µM) and the “Solubility in water based versus PBS based solvents” value ([1]; water vs PBS) was “much more soluble in water based solvents than in PBS based solvents”.
